{"source": "a protein production outcome set (Wang et al. 2014)", "test": "label from the status in PepcDB records", "data": [{"sequence": "SKEDTEITIQKIMDAVVDQLLRLGYDKMSYTTLSQQTGVSRTGISHHFPKKTDFTAALDGRIFKMFIEHLEFEKGLDAFSQSWIKALEDSEFLAILRLLFHHIVTSESAHEFAANGIDRLYKMVESQFGSGGDKELEWLIGRSLIQ", "values": [{"measurement": "protein production", "result": "failed"}]}, {"sequence": "MIYMPIVVAVDKKSDRAERVLRFAAEEARLRGVPVYVVHSLPGGGRTKDEDIIEAKETLSWAVSIIRKEGAEGEEHLLVRGKEPPDDIVDFADEVDAIAIVIGIRKRSPTGKLIFGSVARDVILKANKPVICIK", "values": [{"measurement": "protein production", "result": "not failed"}]}, {"sequence": "MVMQQIKKIGNSFWYMTPVSETDRPILGMVVGQEKTLMIDAGNSEEHAQLFLEMLKEQNVSNPDFVALTHWHWDHIFGLPVLQDALSIAHSETKKEMRTLVSYEWTDEALDARVKEGTEIAFCADCIKKEFEEKARNINIIPPTLTFQNQMELDLGEVTCVLKHVGGDHAHDSVVIYVKEEKILFLGDCIYADIFSSKWNYTTKRTFALIDELEKFDAETYILSHGEAINREEFLQEIRMLKAVGTYTEAHKGDEEKIKAAYKQELDRELNEDELETITYFVNGYEMNNQ", "values": [{"measurement": "protein production", "result": "failed"}]}, {"sequence": "MSGLLPLLDFAGYVALLLWGVHMVQTGVQRAFGAALSIALGRALGTRLRAFASGLGITAALQSSTATGLMITGFAAGGVVALVPALAAMLGANVGTTLIVQLLSFDLTSLAPILILAGVWMFRRAAPGRTRDLGRVFIGLGLLLLSLHQLVQLFQPFETAPLLGVLLDALASQPVAAVLLAAALTWAAHSSVAVVVLVMSLASHGMVNPALAFALVLGANLGTAINPMIEGVTGDDPAARRLPLGNLLTRVAGVLAGIILLPWLQPWLSGLAGDPAHAVANFHTLFNVVIALVFLPILTPYAALLTRWLPKRADPNDPARPQYLDEWAHDVPAVALGNAAREALRMADMLQTLLLYARAGFKRDNRHRMVQARQLDSALDKLETAITTYLATLDQENMTREDHQRLDTILAFCSNIGHAGDIAYHGLLNHIGRLRKQGLLLSADQRASLDATLGELIANQRQAAALFVTDDLRQARALAGEKARFRALEAEAAETQLQQIKSGKVDAAEVGALYLDILRDLKGINSHVVGASAYPLLARHGELLPSRLRDAGN", "values": [{"measurement": "protein production", "result": "failed"}]}, {"sequence": "MHTALINHIRKFIFLTDEDAGTLSAFFQLKKVRKKETLLKTGEICRINYFVVKGCLRLFFIDEKGIEQTTQFAIENWWLSDYMAFQKQQPADFYIQSVENCELLSITYTEQENLFERIPALERYFRLVYQKSFAAAQLRSKFQHMYSKEEQYHNFSSRFPEFIQRVPQYLLASYLGFTPEYLSEIRKKYIS", "values": [{"measurement": "protein production", "result": "not failed"}]}, {"sequence": "MDIITKMQVDVPRETVFEAFVDPEKIGGFWFSSSSERWEQGKTITLRYEEYDAELNINIERVEDNQLIAFTWGAHPITIQFEESEAGTVVTTTEKDFDTQDVKQLLGQKEGWVYMLSCLKVYLEHGVTIRAAILLEHHHHHH", "values": [{"measurement": "protein production", "result": "failed"}]}, {"sequence": "MSRNEVLLNGDINFKEVRCVGDNGEVYGIISSKEALHIAQNLGLDLVLISASAKPPVCKVMDYNKFRYQNEKKIKEAKKKQKQIEIKEIKLSTQIAQNDINYKVKHAREFIESNKHVKFKVVLKGRESQNSKAGLDVLFRVQTMMQDLANPEKEPKTEGRFVSWMFVPKAKEAPKNEKKTKENNPPFNRINLMKGENHAKNED", "values": [{"measurement": "protein production", "result": "failed"}]}, {"sequence": "MRQPAIAAVDLGASKVTCFIMKADGVHRDNRTLTTAGVGYVQSRGVRGGAIVNLDEAAQAIAQAVERAETVAGVSVQGVSVCTAGGQLASHRVHTQVSLGARPIGDGDLSRAIASALAQVRIPGRKPIHLLPIAWSVDGQRGIRDPRAMFGRALGLELLVVSVNENIFHTLAHCVERAHLSFEGIVAAPFASALAALEEDEMDLGAVCIDMGGGSTSVAVFNNGALCHVDSLAVGGGHVTQDIARGLQTSVVGAERIKTLHGSAIASANEDREMIEAPPRGDDPGAGPVIAPRSLLKGIIQPRVEETLELLRERLKASGAPVEPGAGIVLTGGASQLAGVREVAVRVFDRPVRLGRPRRVPHLADAASGPAFCAAAGVLHRTAFGPREAVSSKALAGGVARKRPIDPNASPMAKAAAWLRDNL", "values": [{"measurement": "protein production", "result": "failed"}]}, {"sequence": "MQRIRIIDSHTGGEPTRLVIGGFPDLGQGDMAERRRLLGERHDAWRAACILEPRGSDVLVGALLCAPVDPEACAGVIFFNNSGYLGMCGHGTIGLVASLAHLGRIGPGVHRIETPVGEVEATLHEDGSVSVRNVPAYRYRRQVSVEVPGIGRVSGDIAWGGNWFFLVAGHGQRLAGDNLDALTAYTVAVQQALDDQDIRGEDGGAIDHIELFADDPHADSRNFVLCPGKAYDRSPCGTGTSAKLACLAADGKLLPGQPWRQASVIGSQFEGRYEWLDGQPGGPIVPTIRGRAHVSAEATLLLADDDPFAWGIRR", "values": [{"measurement": "protein production", "result": "not failed"}]}, {"sequence": "MSLQLINLNSDLKRLRDEGYFIQVKNGFLIMRDVPYVNSNRHVCRGTIISSLSLAGDRTRIPDTHVVHFDGDMPCNAEGEALNAVVLQSSIFDLGRGITAKHMFSSKPKSGYTDYYHKMTTYASILSGHAEVLNSGISPKVFSTPEDEEDSVFNYTETASGRVGIGALSDLLTEE", "values": [{"measurement": "protein production", "result": "failed"}]}, {"sequence": "MYYGFDIGGTKIALGVFDSTRRLQWEKRVPTPHTSYSAFLDAVCELVEEADQRFGVKGSVGIGIPGMPETEDGTLYAANVPAASGKPLRADLSARLDRDVRLDNDANCFALSEAWDDEFTQYPLVMGLILGTGVGGGLVLNGKPITGQSYITGEFGHMRLPVDALTLMGFDFPLRRCGCGQMGCIENYLSGRGFAWLYQHYYDQSLQAPEIIALWEQGDEQAHAHVERYLDLLAVCLGNILTIVDPDLLVIGGGLSNFTAITTQLAERLPRHLLPVARAPRIERARHGDAGGMRGAAFLHLTD", "values": [{"measurement": "protein production", "result": "not failed"}]}, {"sequence": "MPQTKQPNFLFLMADQLTAFALRMYGNGVCRTPNLDRLAARSTRFANMYCNFPLCAPSRVAMLTGRLPSSVGVYDNASEFSAEVPTFLHHLALAGYSTILSGKMHFVGPEQHHGFQERLTTDIYPSDFGWTPDWREEIPIAPTGMNMRSVIEAGECRRSMQIDYDDDVVYRGVQKIYDLGRLHRDRPFFLAVSMTHPHNPYVSTREFLDLYRPEDIDMPAVPPIPFAQQDPHSQRLWYMFRQDEYDVSDAHVRAARHAYYAMVSYVDAQVGRMLDALQAMDLDESTVVVFTADHGDMLGERGLWYKWVHFDPAVRIPLLISAPGRTRPAVRHELASLVDIFPTMLELAGVSVPDDGASPPPDGRSLAQGLGVSQDEPTGVVYGEMNGEGAHAPCLAVRQGWWKLVVAEGDPPLLFNLQDDPHELRNLAGQPATRDIERQLTALVQARWDARRLHQDILHSQARRRLVQQSRLQGDFPAWDYQPFTDASRQYVRAGAQSSPALVKGKLRYPPVAPVAPQHPRPARSNLPE", "values": [{"measurement": "protein production", "result": "failed"}]}, {"sequence": "MSVDQMAHYQRKLAYEMDSWDLYIALNEGQAITIVDGRSEAAFADEHIPGALNLPHKEICFNSTQMLDKSKLYVCYCDGIGCNASTKTALNLLTLGFDVRELIGGLDWWKRDGYATDGKKAQLGTKINCGC", "values": [{"measurement": "protein production", "result": "failed"}]}, {"sequence": "MRWRHPSALRKADERGRRTPCVVSATSLAVGRIALALLLVVLNGFFVAAEFAFVRLRSASVETLVQDGRRGATAVKEATDNLDDYLAVSQLGITIASLGLGWVGEPAVAVLVDPLLEPVLPAPVRHTVTVALGFGIVTLLHVVYGELAPKTIAIQRAERVALVVAPVMKLFYYVFLPGTILFNGIATRSVQLIGVSPETEGHDTHTEPEILSVLSEASAAGRISPAEVSMIEHVFSLDDTTVREIMRPRPDVTSVSADTPLPELRTMAASGEYTRYPVTEGPDDDVIGFVDVKDILRASDAIDESGDVTARELSRPVVVVPETLRVDELLAEFQAEHRQMAVVIDEWGAFEGLATIEDALEVIVGDIRDQFDLATHAQSIEPRDDGGYEVPGAVSITELNDHLGTDFENEAVETVAGLVVSRLGHAPTVGDRAVIDTHTFRVTGVDGARITSLTVTPDS", "values": [{"measurement": "protein production", "result": "failed"}]}, {"sequence": "KVWKPGDECFALYWEDNKFYRAEVEALHSSGMTAVVKFTDYGNYEEVLLSNIKPVQTEAWVRDPN", "values": [{"measurement": "protein production", "result": "not failed"}]}, {"sequence": "MDVGMPFSGPVSFPLLVIEEELPFRIHNICSETGKFDVVLDSITNMPKYGLKIFAGVRIDMYSILGDESSGRIYTLRKGTLADFNARILAYYDKAQVINADGDTCIKMANEGYSALVGNEISIGKSFRNRMKELGLDLPSCAMASTRRIDEVIEAYEQGIDFIKNNHERAAEIISKKSGYYSEEVMKKIIGIYGHEVTKKRAELVGSRELYSRVVPELNDIEIIG", "values": [{"measurement": "protein production", "result": "not failed"}]}, {"sequence": "MVFSNSLLSSTTSLTTWANQSSSQSSLSPRYSTWQCVCLRNQKRKPKLYLIPARHFLSTPIDSVSSSSITASRYATSGVSEVQRSTSSNNVTEMEEFEMELQELFNEVKSMVKIGKESDAMDLLRANYVAVKEELDSGLKGIEQAAVLDIIALGYMAVGDLKPVPALLDMINKIVDNLKDSEPLLDSVLMHVGSMYSVIGKFENAILVHQRAIRILENRYGKCNTLLVTPLLGMAKSFASDGKATKAIGVYERTLTILERNRGSESEDLVVPLFSLGKLLLKEGKAAEAEIPFTSIVNIYKKIYGERDGRVGMAMCSLANAKCSKGDANEAVDIYRNALRIIKDSNYMTIDNSILENMRIDLAELLHFVGRGDEGRELLEECLLINERFKGKNHPSMATHLINLAASYSRSKNYVEAERLLRTCLNIMEVSVGSEGQSITFPMLNLAVTLSQLNRDEEAEQIALKVLRIREKAFGEDSLPVGEALDCLVSIQARLGRDDGEILGLLKRVMMIQEKEFGPSAQELIVTLQKIIHFLEKLEMKDDKFKFRRRLALLRERYKQSLSY", "values": [{"measurement": "protein production", "result": "failed"}]}, {"sequence": "MKTSVIISTYTKERYKDVLRCIESVRHQSLKPYEILLILDPVKSLVEYYKNIVPKDVRVVVSDGFGLSKARNKGVFEAKGDIIAFIDDDAWADDLWLEKIVENYSDEGVYGVGGKIIPVFENGRPKWLPEELDWIVGCTYKGMPEQRTNIRNPIGANMSFRREAFEIAGPFRSEIGRYGKKLLSGEEAEFAMRLRKIKPDAKIIYEPSAVVYHKVPKSRVRISYAVKRAFYEGYSKAILAKEFPLEMESKYLNFILRSILRKLLSKGQQIEALVMSVIVMTVGIGNLYGTCRILLRK", "values": [{"measurement": "protein production", "result": "failed"}]}, {"sequence": "VGQRSDSDHVMAEATTDKRQGHTRGRTGNDRRTQIIKVATELFREKGYYATSLDDIADRIGFTKPAIYYYFKSKEDVLFAIVNSIVDEALERFHAIAAGPGSPGERIHALLVEHTRTILRNLDANTLFYNERGLLSPEREREMRKREREYTEIMQRLYAEGVATGELLDVDPTVATATLLGAAIWTYRWYDPEGRLSADEVVEQITRLLLNGYRRPA", "values": [{"measurement": "protein production", "result": "not failed"}]}, {"sequence": "MQDILFDFISTYISLTEDEKNALLSLDLFRSVPKGTILLKEGQKSQESYFVLKGCIRIYYIIDGEEKTTAFYTEMDALTPPCVIHNAPSEYFISCIEDSILTVSNLEMEAEINSKFPKFELMCRMLSEELLAKQQIDFDAFKTSSPEQRYLNVLQNRPDLIQRVPQHQLASFLGIKPQSLSRLRARIVDKKS", "values": [{"measurement": "protein production", "result": "not failed"}]}, {"sequence": "MTVLIIGMGNIGKKLVELGNFEKIYAYDRISKDIPGVVRLDEFQVPSDVSTVVECASPEAVKEYSLQILKNPVNYIIISTSAFADEVFRERFFSELKNSPARVFFPSGAIGGLDVLSSIKDFVKNVRIETIKPPKSLGLDLKGKTVVFEGSVEEASKLFPRNINVASTIGLIVGFEKVKVTIVADPAMDHNIHIVRISSAIGNYEFKIENIPSPENPKTSMLTVYSILRTLRNLESKIIFG", "values": [{"measurement": "protein production", "result": "not failed"}]}, {"sequence": "MGAAVGTSEAIQMVNQRQAVWVDVRPTEQFQAGHIAQARSLPAADLEKKAGALPKNKPLIVVCEQGRDAARIAARLRSQGFAEVSVLEGGMRAWFAAGLPVTQKGLEHHHHHH", "values": [{"measurement": "protein production", "result": "failed"}]}, {"sequence": "RQAEEGPPPLPRQISDRSVGHYCSMNLTEHNGPKAQIFLNGKPDQPVWFSTIKQMFGYTKLPEEPKGIRVIYVTDMGNVTDWTNPNADTEWMDAKKAFYVIDSGFIGGMGAEDALPFGNKEQAEKFAKDKGGKVVGFDDMPDTYIFK", "values": [{"measurement": "protein production", "result": "not failed"}]}, {"sequence": "GEKTFTQRSRLFVGNLPPDITEEEMRKLFEKYGKAGEVFIHKDKGFGFIRLETRTLAEIAKVELDNMPLRGKQLRVRFACHSASLT", "values": [{"measurement": "protein production", "result": "not failed"}]}]}
